Measured values reported in IntAct's records for PubMed 25910212.

B1: U4/U6 small nuclear ribonucleoprotein Prp31 (Homo sapiens), Q8WWY3 (parent)
chain: MSLADELLADLEEAAEEEEGGSYGEEEEEPAIEDVQEETQLDLSGDSVKTIAKLWDSKMFAEIMMKIEEYISKQAKASEVMGPVEAAPEYRVIVDANNLTVEIENELNIIHKFIRDKYSKRFPELESLVPNALDYIRTVKELGNSLDKCKNNENLQQILTNATIMVVSVTASTTQGQQLSEEELERLEEACDMALELNASKHRIYEYVESRMSFIAPNLSIIIGASTAAKIMGVAGGLTNLSKMPACNIMLLGAQRKTLSGFSSTSVLPHTGYIYHSDIVQSLPPDLRRKAARLVAAKCTLAARVDSFHESTEGKVGYELKDEIERKFDKWQEPPPVKQVKPLPAPLDGQRKKRGGRRYRKMKERLGLTEIRKQANRMSFGEIEEDAYQEDLGFSLGHLGKSGSGRVRQTQVNEATKARISKTLQRTLQKQSVVYGGKSTIRDRSSGTASSVAFTPLQGLEIVNPQAAEKKVAEANQKYFSSMAEFLKVKGEKSGLMST
partner: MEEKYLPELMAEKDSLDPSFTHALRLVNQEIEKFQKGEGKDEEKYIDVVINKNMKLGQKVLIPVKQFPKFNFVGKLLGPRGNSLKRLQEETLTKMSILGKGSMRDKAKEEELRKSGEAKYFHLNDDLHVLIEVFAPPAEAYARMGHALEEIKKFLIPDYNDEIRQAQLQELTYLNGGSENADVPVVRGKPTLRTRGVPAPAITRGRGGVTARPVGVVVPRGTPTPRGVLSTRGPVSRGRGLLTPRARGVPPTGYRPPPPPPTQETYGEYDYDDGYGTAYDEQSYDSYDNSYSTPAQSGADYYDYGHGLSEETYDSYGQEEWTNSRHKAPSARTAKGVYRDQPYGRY
B2: U4/U6 small nuclear ribonucleoprotein Prp3 (Homo sapiens), O43395 (parent)
chain: MALSKRELDELKPWIEKTVKRVLGFSEPTVVTAALNCVGKGMDKKKAADHLKPFLDDSTLRFVDKLFEAVEEGRSSRHSKSSSDRSRKRELKEVFGDDSEISKESSGVKKRRIPRFEEVEEEPEVIPGPPSESPGMLTKLQIKQMMEAATRQIEERKKQLSFISPPTPQPKTPSSSQPERLPIGNTIQPSQAATFMNDAIEKARKAAELQARIQAQLALKPGLIGNANMVGLANLHAMGIAPPKVELKDQTKPTPLILDEQGRTVDATGKEIELTHRMPTLKANIRAVKREQFKQQLKEKPSEDMESNTFFDPRVSIAPSQRQRRTFKFHDKGKFEKIAQRLRTKAQLEKLQAEISQAARKTGIHTSTRLALIAPKKELKEGDIPEIEWWDSYIIPNGFDLTEENPKREDYFGITNLVEHPAQLNPPVDNDTPVTLGVYLTKKEQKKLRRQTRREAQKELQEKVRLGLMPPPEPKVRISNLMRVLGTEAVQDPTKVEAHVRAQMAKRQKAHEEANAARKLTAEQRKVKKIKKLKEDISQGVHISVYRVRNLSNPAKKFKIEANAGQLYLTGVVVLHKDVNVVVVEGGPKAQKKFKRLMLHRIKWDEQTSNTKGDDDEESDEEAVKKTNKCVLVWEGTAKDRSFGEMKFKQCPTENMAREHFKKHGAEHYWDLALSESVLESTD
partner: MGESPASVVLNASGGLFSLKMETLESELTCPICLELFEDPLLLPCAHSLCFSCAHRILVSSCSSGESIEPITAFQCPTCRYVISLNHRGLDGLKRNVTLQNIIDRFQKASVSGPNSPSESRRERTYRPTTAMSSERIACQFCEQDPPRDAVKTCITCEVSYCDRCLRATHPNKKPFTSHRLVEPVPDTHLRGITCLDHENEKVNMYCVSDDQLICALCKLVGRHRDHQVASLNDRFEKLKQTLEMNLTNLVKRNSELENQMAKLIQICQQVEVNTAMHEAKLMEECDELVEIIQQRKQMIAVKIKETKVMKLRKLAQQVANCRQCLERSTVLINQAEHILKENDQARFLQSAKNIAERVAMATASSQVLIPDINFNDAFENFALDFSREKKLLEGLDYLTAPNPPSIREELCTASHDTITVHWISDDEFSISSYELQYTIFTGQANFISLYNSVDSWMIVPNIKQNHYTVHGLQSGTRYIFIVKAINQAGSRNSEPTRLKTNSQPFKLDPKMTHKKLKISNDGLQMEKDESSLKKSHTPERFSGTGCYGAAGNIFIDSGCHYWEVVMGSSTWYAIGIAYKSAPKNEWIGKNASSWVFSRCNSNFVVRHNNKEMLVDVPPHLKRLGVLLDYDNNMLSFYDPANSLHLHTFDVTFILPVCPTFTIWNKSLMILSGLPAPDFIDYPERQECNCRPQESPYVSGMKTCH
B3: Meiotic recombination protein DMC1/LIM15 homolog (Homo sapiens), Q14565 (parent)
chain: MKEDQVVAEEPGFQDEEESLFQDIDLLQKHGINVADIKKLKSVGICTIKGIQMTTRRALCNVKGLSEAKVDKIKEAANKLIEPGFLTAFEYSEKRKMVFHITTGSQEFDKLLGGGIESMAITEAFGEFRTGKTQLSHTLCVTAQLPGAGGYPGGKIIFIDTENTFRPDRLRDIADRFNVDHDAVLDNVLYARAYTSEHQMELLDYVAAKFHEEAGIFKLLIIDSIMALFRVDFSGRGELAERQQKLAQMLSRLQKISEEYNVAVFVTNQMTADPGATMTFQADPKKPIGGHILAHASTTRISLRKGRGELRIAKIYDSPEMPENEATFAITAGGIGDAKE
B4: Zinc finger CCHC domain-containing protein 12 (Homo sapiens), Q6PEW1 (parent)
chain: MASIIARVGNSRRLNAPLPPWAHSMLRSLGRSLGPIMASMADRNMKLFSGRVVPAQGEETFENWLTQVNGVLPDWNMSEEEKLKRLMKTLRGPAREVMRVLQATNPNLSVADFLRAMKLVFGESESSVTAHGKFFNTLQAQGEKASLYVIRLEVQLQNAIQAGIIAEKDANRTRLQQLLLGGELSRDLRLRLKDFLRMYANEQERLPNFLELIRMVREEEDWDDAFIKRKRPKRSESMVERAVSPVAFQGSPPIVIGSADCNVIEIDDTLDDSDEDVILVESQDPPLPSWGAPPLRDRARPQDEVLVIDSPHNSRAQFPSTSGGSGYKNNGPGEMRRARKRKHTIRCSYCGEEGHSKETCDNESDKAQVFENLIITLQELTHTEMERSRVAPGEYNDFSEPL
B5: Caspase-10 (Homo sapiens), Q92851-4 (parent)
chain: MKSQGQHWYSSSDKNCKVSFREKLLIIDSNLGVQDVENLKFLCIGLVPNKKLEKSSSASDVFEHLLAEDLLSEEDPFFLAELLYIIRQKKLLQHLNCTKEEVERLLPTRQRVSLFRNLLYELSEGIDSENLKDMIFLLKDSLPKTEMTSLSFLAFLEKQGKIDEDNLTCLEDLCKTVVPKLLRNIEKYKREKAIQIVTPPVDKEAESYQGEEELVSQTDVKTFLEALPQESWQNKHAGSNGNRATNGAPSLVSRGMQGASANTLNSETSTKRAAVYRMNRNHRGLCVIVNNHSFTSLKDRQGTHKDAEILSHVFQWLGFTVHIHNNVTKVEMEMVLQKQKCNPAHADGDCFVFCILTHGRFGAVYSSDEALIPIREIMSHFTALQCPRLAEKPKLFFIQACQGEEIQPSVSIEADALNPEQAPTSLQDSIPAEADFLLGLATVPGYVSFRHVEEGSWYIQSLCNHLKKLVPRHEDILSILTAVNDDVSRRVDKQGTKKQMPQPAFTLRKKLVFPVPLDALSL

Variants of: B1
Settings: with khdr3_human KHDRBS3, O75525

effect of a mutation on the interaction	Variant
with no effect	L107V

Variants of: B2
Settings: with MID2, Q9UJV3-2

effect of a mutation on the interaction	Variant
with no effect	A489D
with no effect	P493S
with no effect	T494M

Variants of: B3
Settings: with psa3_human PSMA3, P25788
Chain of psa3_human PSMA3, P25788 (P25788 whole entry): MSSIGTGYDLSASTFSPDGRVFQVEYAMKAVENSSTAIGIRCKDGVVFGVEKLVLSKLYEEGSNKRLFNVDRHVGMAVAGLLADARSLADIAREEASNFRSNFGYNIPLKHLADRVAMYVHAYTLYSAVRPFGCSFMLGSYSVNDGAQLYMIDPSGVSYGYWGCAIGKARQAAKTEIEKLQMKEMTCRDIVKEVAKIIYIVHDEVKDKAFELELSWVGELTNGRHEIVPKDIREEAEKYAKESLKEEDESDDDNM

effect of a mutation on the interaction	Variant
disrupting interaction strength	M200V

Variants of: B3
Settings: with sdcb1_human SDCBP

effect of a mutation on the interaction	Variant
disrupting interaction strength	M200V

Variants of: B4
Settings: with pnma1_human PNMA1, Q8ND90
Chain of pnma1_human PNMA1, Q8ND90 (Q8ND90 whole entry): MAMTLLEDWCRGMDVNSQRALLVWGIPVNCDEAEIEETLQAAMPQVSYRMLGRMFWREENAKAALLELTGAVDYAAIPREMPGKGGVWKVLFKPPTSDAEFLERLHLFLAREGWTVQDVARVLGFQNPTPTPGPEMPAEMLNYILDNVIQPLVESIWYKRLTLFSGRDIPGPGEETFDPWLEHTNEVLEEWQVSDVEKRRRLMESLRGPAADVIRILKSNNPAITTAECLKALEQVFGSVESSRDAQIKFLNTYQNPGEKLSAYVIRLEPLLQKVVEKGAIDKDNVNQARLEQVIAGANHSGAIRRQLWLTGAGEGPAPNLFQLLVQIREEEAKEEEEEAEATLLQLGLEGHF

effect of a mutation on the interaction	Variant
with no effect	R7C
with no effect	T344I

Variants of: B4
Settings: with tfcp2_human TFCP2, Q12800
Chain of tfcp2_human TFCP2, Q12800 (Q12800 whole entry): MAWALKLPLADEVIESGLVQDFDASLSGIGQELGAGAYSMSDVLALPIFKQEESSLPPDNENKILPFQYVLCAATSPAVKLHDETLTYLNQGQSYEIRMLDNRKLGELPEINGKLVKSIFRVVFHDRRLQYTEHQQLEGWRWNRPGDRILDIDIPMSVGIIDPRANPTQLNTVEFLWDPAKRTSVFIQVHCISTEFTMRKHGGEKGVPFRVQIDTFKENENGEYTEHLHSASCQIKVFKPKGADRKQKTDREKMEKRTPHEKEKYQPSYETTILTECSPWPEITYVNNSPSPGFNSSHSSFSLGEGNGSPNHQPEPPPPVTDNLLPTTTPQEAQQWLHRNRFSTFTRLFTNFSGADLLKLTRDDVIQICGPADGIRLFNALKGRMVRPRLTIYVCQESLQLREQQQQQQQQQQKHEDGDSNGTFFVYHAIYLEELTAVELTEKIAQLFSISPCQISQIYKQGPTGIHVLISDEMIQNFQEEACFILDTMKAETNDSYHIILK

effect of a mutation on the interaction	Variant
with no effect	R7C
with no effect	T344I

Variants of: B5
Settings: with xiap_human XIAP

effect of a mutation on the interaction	Variant
disrupting interaction strength	P501L
disrupting interaction strength	V410I
